In article PMC6914384 (Nature, 2018):
No end group written: not given here.

Experiments:
[1] = biological target: T1, p300 BRP module (bromodomain-RING-PHD), residues 1048-1282 (UniProt Q09472 1048-1282); test: ITC
T1 sequence: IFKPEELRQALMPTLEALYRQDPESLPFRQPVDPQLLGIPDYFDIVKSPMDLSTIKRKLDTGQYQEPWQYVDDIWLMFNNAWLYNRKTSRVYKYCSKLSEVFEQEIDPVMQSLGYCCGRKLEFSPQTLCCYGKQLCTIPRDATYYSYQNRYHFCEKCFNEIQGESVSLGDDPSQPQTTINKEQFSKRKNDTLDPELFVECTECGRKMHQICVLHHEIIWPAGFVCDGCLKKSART

[2] = biological target: T2, p300 BPΔR module (BRP 1048-1282 with the RING domain 1169-1241 replaced by a single glycine) (UniProt Q09472); test: crystal structure
T2 chain: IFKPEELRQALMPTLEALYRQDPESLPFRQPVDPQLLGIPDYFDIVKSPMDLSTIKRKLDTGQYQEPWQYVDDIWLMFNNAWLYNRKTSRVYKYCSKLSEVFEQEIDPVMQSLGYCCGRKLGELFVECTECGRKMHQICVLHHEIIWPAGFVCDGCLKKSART

Row | Binder | Kd [1] [µM] | stoichiometry N [1] | binding result [2]
1 | ARTKQTQRKSTGGK(Ac)APRKQL [H3 K14ac (1-20) peptide] | 1760 | 1.13 | –
2 | GLGK(Ac)GGAK(Ac)RHR [11-mer histone peptide H4 (10-20) with acetylated K12 and K16] | – | – | binds
3 | ARTKQTQRK(Ac)STGGK(Ac)APRKQL [H3 K9acK14ac (1-20) peptide] | 578 | 1.06 | –
